The test deals with 17T2 mAb de-glycosylated with PNGase F (human). Kind of test: SPR. On the technique in general: SPR reads the build-up and loss of mass on a sensor chip optically.

pKd: −log10 of the molar value.

17T2 mAb de-glycosylated with PNGase F (human), sequence (heavy, as listed by the source, chain 1 of 2): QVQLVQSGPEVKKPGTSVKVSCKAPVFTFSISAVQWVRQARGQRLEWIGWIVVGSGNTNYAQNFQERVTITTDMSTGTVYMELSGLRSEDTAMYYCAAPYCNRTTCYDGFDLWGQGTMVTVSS
17T2 mAb de-glycosylated with PNGase F (human), sequence (light, as listed by the source, chain 2 of 2): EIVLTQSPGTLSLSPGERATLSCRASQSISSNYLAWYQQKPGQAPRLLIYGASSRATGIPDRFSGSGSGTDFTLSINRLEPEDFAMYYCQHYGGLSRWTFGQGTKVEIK

With “SARS-CoV-2 spike receptor binding domain, ancestral WH1 (from UniProt P0DTC2 319-541) (domain or fragment)”, the negative logarithm of the Kd (pKd) (commonly −log10 of the Kd, conventionally taken in molar units) is 10.13; the off-rate (koff) (as a rule, the first-order rate constant of dissociation) worked out at 0.00013 s⁻¹; the association rate constant (kon) – broadly, the second-order rate constant of association – is 1.74e+06 M⁻¹ s⁻¹.
